This is an account of results in patent US20230312741A1 (published 2023).

Assay [1] addresses T1, human CD73 expressed on the cell surface (human, UniProt P21589 27-549).
T1 sequence: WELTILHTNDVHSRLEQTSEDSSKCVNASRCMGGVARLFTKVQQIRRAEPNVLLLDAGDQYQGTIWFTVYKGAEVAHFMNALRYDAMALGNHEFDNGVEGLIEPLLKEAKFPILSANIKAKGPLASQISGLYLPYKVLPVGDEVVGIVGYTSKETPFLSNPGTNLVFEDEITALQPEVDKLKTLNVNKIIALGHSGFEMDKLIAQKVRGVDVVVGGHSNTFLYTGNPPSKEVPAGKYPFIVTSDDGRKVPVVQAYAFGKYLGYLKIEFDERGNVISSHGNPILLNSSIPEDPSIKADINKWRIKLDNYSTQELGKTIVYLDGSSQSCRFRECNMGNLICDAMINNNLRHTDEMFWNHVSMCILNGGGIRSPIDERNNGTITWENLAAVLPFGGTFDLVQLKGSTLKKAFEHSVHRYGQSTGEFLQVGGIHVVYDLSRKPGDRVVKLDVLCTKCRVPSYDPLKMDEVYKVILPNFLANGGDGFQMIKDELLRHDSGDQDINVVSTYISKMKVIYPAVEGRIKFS
As to the kind of experiment: cell-based or functional assay.

Assay [2] deals with T2, CD73 mutant K136A/Y161A/K162A/V170A (human, UniProt P21589 27-549).
T2 construct: As m43; also called mutant 13
T2 chain: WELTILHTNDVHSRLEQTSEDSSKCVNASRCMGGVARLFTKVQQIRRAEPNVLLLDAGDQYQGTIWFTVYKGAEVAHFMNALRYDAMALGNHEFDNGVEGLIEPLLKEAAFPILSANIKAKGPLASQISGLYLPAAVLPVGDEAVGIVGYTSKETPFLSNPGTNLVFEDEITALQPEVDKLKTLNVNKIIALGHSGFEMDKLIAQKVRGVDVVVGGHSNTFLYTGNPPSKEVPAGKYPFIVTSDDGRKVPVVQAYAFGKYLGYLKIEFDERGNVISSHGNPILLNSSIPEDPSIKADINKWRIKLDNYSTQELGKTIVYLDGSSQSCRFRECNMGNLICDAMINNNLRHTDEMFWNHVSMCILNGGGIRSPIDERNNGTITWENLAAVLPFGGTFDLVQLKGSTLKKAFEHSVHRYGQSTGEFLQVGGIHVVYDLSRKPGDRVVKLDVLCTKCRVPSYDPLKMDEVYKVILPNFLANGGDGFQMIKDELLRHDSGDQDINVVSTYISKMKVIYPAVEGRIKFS
The assay can be described thus: flow cytometry, GS-CHO cells with CD73 mutant. Background: Flow cytometry measures light scatter and fluorescence of single cells or particles in a stream.
Procedure: (§1) After washing three more times with PBS, the cells were resuspended in 100 ul PBS. (4) The average fluorescence value was measured in PE channel by flow cytometer. The Log₁₀ of antibody concentration was used as the horizontal coordinate and the average fluorescence value of the PE channel was used as the vertical coordinate to plot a curve, and the EC50 and the peak of the curve were compared.

In assay [3] the target is T3, CD73 mutant L159A/Y161A/K162A/V170A (human, UniProt P21589 27-549).
T3 construct: As m43; also called mutant 16
T3 chain: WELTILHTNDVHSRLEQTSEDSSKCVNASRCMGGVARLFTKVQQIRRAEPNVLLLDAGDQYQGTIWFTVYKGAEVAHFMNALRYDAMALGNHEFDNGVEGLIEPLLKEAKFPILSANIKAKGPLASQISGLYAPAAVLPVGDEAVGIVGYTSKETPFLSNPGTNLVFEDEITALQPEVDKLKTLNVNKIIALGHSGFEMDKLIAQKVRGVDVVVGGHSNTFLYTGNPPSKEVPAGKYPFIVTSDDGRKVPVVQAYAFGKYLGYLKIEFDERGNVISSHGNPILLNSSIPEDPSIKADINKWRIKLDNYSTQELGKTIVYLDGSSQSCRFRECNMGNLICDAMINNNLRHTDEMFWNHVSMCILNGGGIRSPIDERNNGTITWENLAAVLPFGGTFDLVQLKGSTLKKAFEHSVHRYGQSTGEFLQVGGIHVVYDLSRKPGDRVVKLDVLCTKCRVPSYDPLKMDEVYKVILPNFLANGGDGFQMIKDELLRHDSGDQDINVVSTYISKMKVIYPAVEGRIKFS
The assay can be described thus: flow cytometry, GS-CHO cells with CD73 mutant.
Procedure: as §1

For assay [4], the target named is T4, CD73 mutant Y161A/K162A/V170A (human, UniProt P21589 27-549).
T4 construct: As m43; also called mutant 3
T4 chain: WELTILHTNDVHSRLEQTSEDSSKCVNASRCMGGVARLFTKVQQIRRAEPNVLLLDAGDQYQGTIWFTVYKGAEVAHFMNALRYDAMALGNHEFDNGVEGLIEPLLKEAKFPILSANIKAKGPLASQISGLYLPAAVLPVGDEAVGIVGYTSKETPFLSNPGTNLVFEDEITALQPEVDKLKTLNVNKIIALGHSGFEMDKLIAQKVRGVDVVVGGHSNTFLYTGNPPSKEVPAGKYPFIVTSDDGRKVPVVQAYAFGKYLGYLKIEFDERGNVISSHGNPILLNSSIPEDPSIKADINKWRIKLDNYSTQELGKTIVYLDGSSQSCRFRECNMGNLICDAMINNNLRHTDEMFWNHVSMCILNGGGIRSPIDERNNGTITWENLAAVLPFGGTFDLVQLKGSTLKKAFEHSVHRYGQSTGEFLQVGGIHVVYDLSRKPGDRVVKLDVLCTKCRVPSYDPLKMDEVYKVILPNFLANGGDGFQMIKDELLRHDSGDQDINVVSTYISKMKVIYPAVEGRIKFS
As to the kind of experiment: flow cytometry, GS-CHO cells with CD73 mutant.
Procedure: as §1

Assay [5] has as its target T5, soluble CD73 protein (ACRO, CD3-H52H7) (human, UniProt P21589 27-547).
T5 sequence (looked up): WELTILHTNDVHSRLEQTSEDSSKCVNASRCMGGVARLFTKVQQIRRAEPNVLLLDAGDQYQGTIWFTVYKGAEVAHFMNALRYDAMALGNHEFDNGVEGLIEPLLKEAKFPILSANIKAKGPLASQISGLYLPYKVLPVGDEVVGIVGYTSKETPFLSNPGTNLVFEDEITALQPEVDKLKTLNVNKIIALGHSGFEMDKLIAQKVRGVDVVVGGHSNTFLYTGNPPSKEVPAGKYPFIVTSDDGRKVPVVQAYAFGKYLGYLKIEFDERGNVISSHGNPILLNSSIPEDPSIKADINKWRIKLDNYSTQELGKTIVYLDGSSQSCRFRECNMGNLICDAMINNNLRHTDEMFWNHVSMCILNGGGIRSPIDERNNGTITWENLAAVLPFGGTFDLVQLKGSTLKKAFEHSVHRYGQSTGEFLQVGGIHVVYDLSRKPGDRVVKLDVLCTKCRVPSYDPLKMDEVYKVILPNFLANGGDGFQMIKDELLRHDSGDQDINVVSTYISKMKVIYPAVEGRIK
The assay can be described thus: cell-based or functional assay.

The target of assay [6] is T1, human CD73 expressed on the cell surface. As to the kind of experiment: cell-based or functional assay. The source holds these as a separate data set.

B1: ADI-37505 (antibody, human IgG4 S228P, kappa, F234A L235A, V domains shown)
VH: QVQLVESGGGLVQPGGSLRLSCAASGFTFSNYAMTWVRQAPGKGLEWVSAISGRGTATYYADSVKGRFTISRDNSKNTLYLQMNSLRAEDTAVYYCARGGPYGSGSYWDTFDYWGQGTLVTVSS
VL: EIVMTQSPATLSVSPGERATLSCRASQSVSSNLAWYQQKPGQAPRLLIYGASTRATGIPARFSGSGSGTEFTLTISSLQSEDFAVYYCQQYTNHYTFGGGTKVEIKR
In the case of B1, in assay [1], the “IC50 for inhibiting the enzymatic activity of CD73 (Calu-6 cells)” value was 0.076 µg/mL. Also, the binding result in assay [2], in assay [3] and in assay [4] was “binds” throughout. Also, in assay [5], the “IC50, enzymatic activity of soluble CD73 at 1 hour” value was 0.0718 nM. The “IC50, enzymatic activity of CD73 on NCI-H292 cells” value in assay [6] stood at 1.47 nM.

B2: ADI-37506 (antibody, human IgG4 S228P, kappa, F234A L235A, V domains shown)
VH: EVQLLESGGGLVQPGGSLRLSCAASGFTFSNLAMSWVRQAPGKGLEWVSAISGRATSTYYADSVKGRFTISRDNSKNTLYLQMNSLRAEDTAVYYCARGGPYGSGSYWDTFDYWGQGTLVTVSS
VL: EIVMTQSPATLSVSPGERATLSCRASQSVSSNLAWYQQKPGQAPRLLIYGASTRATGIPARFSGSGSGTEFTLTISSLQSEDFAVYYCQQYTNHYTFGGGTKVEIKR
Turning to B2, the “IC50 for inhibiting the enzymatic activity of CD73 (Calu-6 cells)” value in assay [1] is 0.073 µg/mL. The binding result in assay [2], in assay [3] and in assay [4] was “binds” throughout. The “IC50, enzymatic activity of soluble CD73 at 1 hour” value in assay [5] was determined as 0.0897 nM. Further, the “IC50, enzymatic activity of CD73 on NCI-H292 cells” value in assay [6] turned out to be 1.27 nM.
